Substitutions are numbered along the chain they refer to.
B1: Clone 9-1 (antibody, V domains shown)
VH: QQQLEESGGGLVKPGGTLTLTCTASGFSFSSGQWMCWVRQAPGKGLELIACIYTSAGGSTHYASWATGRFTISKTSSTTVTLQMTSLTAADTATYFCARDPYLLSAGPDNNLWGPGTLVAVSS
VL: ALVMTQTPSPVSAAVGGTVTINCQASQSIGSDFTWWQQKPGQPPKLLIYWASTLASGVSSRFKGSGSGTQFTLTISDLECDDAATYYCAGYVSYSDDGNAFGGGTEVVVK
B2: Clone 18-4 (antibody, V domains shown)
VH: QERLVESGGGLVQPEGSLTLTCTASGLTLSNYWLCWVRQAPGKGLEWIACIYTGNYGSAYYANWVKGRFTISKASSTTVTLQMTSLTAADTATYFCARDPYTLTNVDVLWGPGTLVTVSS
VL: ALVMTQTPSPVSAAVGGTVTINCQASQSIGSDLAWYQQRPGQPPKLLIYWASTLASGVPSRFSGSGSGTQFTLTISDLECDDAATYYCTGYISYNDDNAAFGGGTEVVVK
B3: Clone 63-1 (antibody, V domains shown)
VH: QEQLEESGGDLVKPGASLTLTCTASGFSFSSGYWICWVRQAPGKGLEWIACIYTRSGGSTHYASWAKGRFTTSKTSSTTVTLQMTSLTAADMATYFCARDPYVLSAGPDNVLWGPGTLVTVSS
VL: ALVMTQTPSPVSAAVGGTVTINCQASESIGSDLGWYQQKPGQPPKFLIYWASTLVSGVPSRFEGSGSGTQFTLTISDLECDDAATYYCAGYESLSNDGNAFGGGTEVVVK
B4: Clone 80-7 (antibody, V domains shown)
VH: B3 VH with G15E, A16G, G32A, A41V, R55G, S59R, T60S, T72I, M92T, V103I
VL: B3 VL with E27Q, Y36F, F46L, V55A
B5: Clone 137-2 (antibody, V domains shown)
VH: QEQLVESGGGLVQPEGSLTLTCTASGFSFSLSNWICWVRQAPGKGLEWVACIYVSVSGNTRYASWAKGRFTISETSSTTVTLQMTGLTAADTATYFCARDPFSLVSVDRSLWGPGTLVTVSS
VL: ALVMTQTPSPVSAAVGGTVTINCQASQSIGSDLSWFQQKPGQPPKLLMYWASSLASGVPSRFKGSGSGTQFTLTISDLECDDAATYYCAGYVNYNNDDAAFGGGTEVVVK
B6: Clone 154-7 (antibody, V domains shown)
VH: QSLEESGGDLVKPEGSLTLTCTASGFSFSSSYWICWVRQAPGKGLEWIACIYTANSGRTVYASWAKGRFTISKTSSTTVTLQLPSLTAADTATYFCARDIYVLTTTDNLWGPGTLVTVSS
VL: ALVMTQAPSPVSAAVGGTVTISCQASQPIGSDLVWYQQKPGQPPKLLIYYASDLASGVPSRFKGSGSGTRFTLTISGVECDDAATYYCAGYKNYDHDDCGFGGGTEVVVK
B7: Clone 9-9 (antibody, V domains shown)
VH: B1 VH with W34R
VL: B1 VL
B8: Clone 77-9 (antibody, V domains shown)
VH: QSLEESGGALVKPGASLALTCTASGFSFNLRHYMCWVRQAPGKGLEWIGCVHGGSSGGTYYASWTKGRFTISKTSSTTVTLQMTSLTAADTATYFCAREDDIMMAGEFSLWGPGTLVTVSS
VL: DIVMTQTPSSVEASVGGTVTIKCQASEDIESYLVWYQQKPGQPPKLLIYQASNLASGVPSRFYGSGSGTQFTLTISDLECADASTYYCQSYVEGGVDVVFGGGTEVVVK
B9: Clone 83-3 (antibody, V domains shown)
VH: B8 VH with A9D, A18T, G57S, T65A, A97T, S109G
VL: B8 VL with E12S, A13E, S14P, Y63S, Q70E, F71Y, S84A, V92I
B10: Clone 89-10 (antibody, V domains shown)
V domain 1: QEQLVESRGGLVKPGGSLTLTCKASGFSFSTGYYACWVRQAPGKGLELSACVDTGSGDTFYASWARGRFTISKTSSSTVTLQMTSLTVADTATYFCARTALVMTDFYFNLWGPGTLTTVSS
V domain 2: ALVMTQTPASVEAAVGGTVTINCQASQWISNELSWYQQKPGQPPKLLIYLASTLASGVPSRFKGSGSGTEFTLTISDLECADAATYYCQQGYNIGHLDNAFGGGTEVVVK

Biological target: CAR-3
Experiment: flow cytometry; clonal supernatant on control CAR-3 T cells, FITC goat anti-rabbit F(ab')2 detection

**Q.** How did the CAR+ (gate frequency) turn out when B1 was run?
**A.** Its CAR+ (gate frequency) is 0.11.

**Q.** For B2, which CAR+ (gate frequency) is on record?
**A.** Its CAR+ (gate frequency) is 1.81.

**Q.** Which CAR+ (gate frequency) does the source give for B3 here?
**A.** The CAR+ (gate frequency) was 0.14.

**Q.** For B4, which CAR+ (gate frequency) is on record?
**A.** The CAR+ (gate frequency) was 0.067.

**Q.** Which CAR+ (gate frequency) does the source give for B5 here?
**A.** The CAR+ (gate frequency) was 0.093.

**Q.** For B6, which CAR+ (gate frequency) is on record?
**A.** The CAR+ (gate frequency) was 0.15.

**Q.** B7 was tested. Which CAR+ (gate frequency) did it give?
**A.** Its CAR+ (gate frequency) is 0.13.

Biological target: BCMA-AM1
Experiment: flow cytometry; supernatant on CAR-transduced Jurkat cells (panel BCMA-AM1), FITC goat anti-rabbit F(ab')2 detection

**Q.** Which FITC+ (gate frequency) does the source give for B1 here?
**A.** The FITC+ (gate frequency) was 0.14.

Biological target: BCMA-AM1
Experiment: flow cytometry; supernatant on CAR-transduced Jurkat cells (BCMA-AM1), FITC goat anti-rabbit F(ab')2 detection

**Q.** For B8, which FITC+ (gate frequency) is on record?
**A.** The FITC+ (gate frequency) was 82.4.

**Q.** Which FITC+ (gate frequency) does the source give for B9 here?
**A.** The FITC+ (gate frequency) was 83.4.

**Q.** For B10, which FITC+ (gate frequency) is on record?
**A.** The FITC+ (gate frequency) was 82.7.

Biological target: BCMA-AM2
Experiment: flow cytometry; supernatant on CAR-transduced Jurkat cells (BCMA-AM2), FITC goat anti-rabbit F(ab')2 detection

**Q.** For B8, which FITC+ (gate frequency) is on record?
**A.** Its FITC+ (gate frequency) is 91.6.

**Q.** How did the FITC+ (gate frequency) turn out when B9 was run?
**A.** The FITC+ (gate frequency) was 90.2.

**Q.** Which FITC+ (gate frequency) does the source give for B10 here?
**A.** The FITC+ (gate frequency) was 0.042.

Biological target: anti-BCMA CAR
Experiment: flow cytometry; supernatant on CAR-transduced Jurkat cells (panel BCMA WT), FITC goat anti-rabbit F(ab')2 detection

**Q.** With B1 as the binder, how does the FITC+ (gate frequency) read?
**A.** Its FITC+ (gate frequency) is 75.2.

Biological target: BCMA-AM2
Experiment: flow cytometry; supernatant on CAR-transduced Jurkat cells (panel BCMA-AM2), FITC goat anti-rabbit F(ab')2 detection

**Q.** With B1 as the binder, how does the FITC+ (gate frequency) read?
**A.** The FITC+ (gate frequency) was 95.3.

Biological target: CAR-2
Experiment: flow cytometry; clonal supernatant on control CAR-2 T cells, FITC goat anti-rabbit F(ab')2 detection

**Q.** Which CAR+ (gate frequency) does the source give for B1 here?
**A.** Its CAR+ (gate frequency) is 0.18.

**Q.** How did the CAR+ (gate frequency) turn out when B2 was run?
**A.** Its CAR+ (gate frequency) is 0.09.

**Q.** For B3, which CAR+ (gate frequency) is on record?
**A.** Its CAR+ (gate frequency) is 0.1.

**Q.** How did the CAR+ (gate frequency) turn out when B4 was run?
**A.** The CAR+ (gate frequency) was 0.22.

**Q.** B5 was tested. Which CAR+ (gate frequency) did it give?
**A.** Its CAR+ (gate frequency) is 0.11.

**Q.** With B6 as the binder, how does the CAR+ (gate frequency) read?
**A.** Its CAR+ (gate frequency) is 0.067.

**Q.** For B7, which CAR+ (gate frequency) is on record?
**A.** The CAR+ (gate frequency) was 0.067.

Biological target: anti-BCMA CAR
Experiment: flow cytometry; clonal supernatant on anti-BCMA CAR T cells, FITC goat anti-rabbit F(ab')2 detection

**Q.** How did the CAR+ (gate frequency) turn out when B1 was run?
**A.** The CAR+ (gate frequency) was 60.9.

**Q.** B2 was tested. Which CAR+ (gate frequency) did it give?
**A.** The CAR+ (gate frequency) was 41.7.

**Q.** Which CAR+ (gate frequency) does the source give for B3 here?
**A.** The CAR+ (gate frequency) was 58.2.

**Q.** How did the CAR+ (gate frequency) turn out when B4 was run?
**A.** Its CAR+ (gate frequency) is 31.5.

**Q.** B5 was tested. Which CAR+ (gate frequency) did it give?
**A.** The CAR+ (gate frequency) was 42.4.

**Q.** B6 was tested. Which CAR+ (gate frequency) did it give?
**A.** The CAR+ (gate frequency) was 47.1.

**Q.** For B7, which CAR+ (gate frequency) is on record?
**A.** Its CAR+ (gate frequency) is 51.8.
